According to article PMC12316387:

Target: gHgLgO249 complex of 131stop-gO249 virions (human cytomegalovirus, strain TB40/E)
Assay: co-IP + pull-down; gB co-precipitated with gHgLgO from 131stop and 131stop-gO249 virion lysates using anti-gH antibody 14-4b or PDGFRα-Fc; WB, ImageJ; gO precipitation levels normalized and relative gB levels determined

glycoprotein gB of HCMV virions (natural protein)
fold change of co-precipitated gB against gHgLgOWT: 4 fold
